# Measured values taken from US7115556B2, “Use of anti-prolactin agents to treat proliferative conditions” (Greenville Hospital System, priority 1998, dated 2006).
# T1: Caspase-3 (Homo sapiens, UniProt P42574)
# T1 construct: endogenous in cells; host or cells: T-47D
# T1 sequence (P42574 29-277): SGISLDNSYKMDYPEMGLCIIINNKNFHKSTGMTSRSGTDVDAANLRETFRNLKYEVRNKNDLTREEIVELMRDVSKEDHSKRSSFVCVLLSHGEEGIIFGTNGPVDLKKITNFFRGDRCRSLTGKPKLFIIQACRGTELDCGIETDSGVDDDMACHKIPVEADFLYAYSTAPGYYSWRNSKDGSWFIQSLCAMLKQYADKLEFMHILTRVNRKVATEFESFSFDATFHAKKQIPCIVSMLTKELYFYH
# B1: hPRL-G129R: variant of human prolactin having a substitution of the glycine at position 129 with an arginine residue; prolactin receptor antagonist (protein)
# chain: LPICPGGAARCQVTLRDLFDRAVVLSHYIHNLSSEMFSEFDKRYTHGRGFITKAINSCHTSSLATPEDKEQAQQMNQKDFLSLIVSILRSWNEPLYHLVTEVRGMQEAPEAILSKAVEIEEQTKRLLERMELIVSQVHPETKENEIYPVWSGLPSLQMADEESRLSAYYNLLHCLRRDSHKIDNYLKLLKCRIIHNNNC
# Experiments:
# [1] = system: T47D human breast cancer cells; test: Mixed cell culture assay with transfected L cells, T47D; format: cell-based
# Text: For certain experiments, a mixed cell culture assay was used, diagramatically represented in FIG. 6. In this assay, breast cancer cells were co-cultured with expressor cells which had been transfected with nucleic acid encoding PRL or a PRL variant and expressing those recombinant proteins. By varying the number of expressor cells, the amount of PRL or PRL variant present in the mixed cell culture was increased or decreased. […] In certain wells, which served as a control, no expresser cells were added. Then, increasing numbers of expresser cells (transfected L cells expressing either HPRL (L-PRL) or hPRLA (L-PRLA)) were added to breast cancer cell-containing wells to create mixed cultures. The same numbers of expressor cells were cultured in parallel (without T47D cells) to serve as controls. After culturing under standard conditions for a period of time, the number of cells present in the wells was counted, and the number of L cells in the corresponding control culture was subtracted. The resulting number could then be compared to the number of T47D cells in the T47D control culture to evaluate the effects of the recombinant product on breast cancer cell proliferation.
# [2] = system: MCF-7 human breast cancer cells; test: Mixed cell culture assay with transfected L cells, MCF-7; format: cell-based; conditions: MCF-7, three days
# BT-474 cells = test: TUNEL assay, BT-474; format: cell-based, human
# Description: (§1) Cell Culture. T-47D cells obtained from ATCC were grown in RPMI 1640 (phenol red free), supplemented with 10% FBS (GIBCO BRL). BT-474 cells were grown in RPMI 1640 medium (phenol red free) supplemented with 10% FBS and ATCC recommended supplements. MCF-7 cells were grown in DMEM medium (phenol red free), supplemented with 10% FBS. The cells were grown at 37° C. in a humid atmosphere in the presence of 5% CO2. The MDA-MB-134 cells were grown in Leibovitz's L-15 medium supplemented with 20% FBS and grown in CO2 free atmosphere. The breast cancer cells were trypsinized (0.02% Trypsin—EDTA) and grown in their respective media (phenol red free) supplemented with 10% CSS (Charcoal stripped serum) for a week. Subsequently the cells were trypsinized again and plated onto an 8 chambered slide system (Lab Tek II) at a confluence of 60–70% per chamber. The next day treatments were performed on the breast cancer cells using their respective media(phenol red free), supplemented with 1% CSS. The MDA-MB-134 VI cells were grown in phenol red containing medium, but with the same serum conditions as the other breast cancer cells.
# (§2) Terminal deoxynucleotidly transferase mediated dUTP nick end labeling (TUNEL) assay. Nicks of the fragmented DNA are labeled at their 3-OH ends. The fluorescein-labeled dUTP is incorporated at the 3-OH ends by using the enzyme terminal deoxynucleotidyl transferase. After the assigned period of treatment the chambers were dismantled as per the manufacturer's instructions and the TUNEL assay (Apoptosis detection system, Fluorescein- Promega) was performed as per the manufacturer's instructions. The slide was examined under a FITC filter using an Olympus IX 70 microscope system.
# MCF-7 cells = test: TUNEL assay, MCF-7; format: cell-based, human; conditions: 250 ng G129R, 24 hours
# Description: as §1
# (§3) Terminal deoxynucleotidly transferase mediated dUTP nick end labeling (TUNEL) assay. Nicks of the fragmented DNA are labeled at their 3-OH ends. The fluorescein-labeled dUTP is incorporated at the 3-OH ends by using the enzyme terminal deoxynucleotidyl transferase. […]
# MDA-MB-134 cells = test: TUNEL assay, MDA-MB-134; format: cell-based, human; conditions: 250 ng G129R, 24 hours
# Description: as §1, §3
# prostate cancer cells = test: TUNEL assay, prostate cancer cells; format: cell-based, human; conditions: 250 ng hPRL-G129R, 24 hours
# Description: as §2
# The samples were in duplicate and each sample constituted about 2 million cells
# Caspase-3 = molecular target: T1, Caspase-3; test: ApopAlert CPP32/Caspase-3 assay in T-47D cells; format: cell-based; conditions: 250 ng/ml, 2 h, with DEVD-CHO control
# Description: FIG. 24. Induction of Caspase-3 by bPRL-G129R. The effect of hPRL-G129R on Caspase-3 activation in T-47D cells using an ApopAlert CPP32/Caspase-3 assay kit (Clontech, Palo Alto, Calif.) is shown. T-47D cells were treated with 250 ng/ml of hPRL-G129R for 2 h. […] The samples were in duplicate and each sample constituted about 2 million cells.
# In addition, the effect of hPRL-G129R on Caspase-3 activation was assayed in T-47D cells using an ApopAlert CPP32/Caspase-3 assay kit (Clontech, Palo Alto, Calif.) as presented in FIG. 24. T-47D cells were treated with 250 ng/ml of hPRL-G129R for 2 h.
# [3] = system: T47-D human breast cancer cells; test: Light microscopic examination of T47-D cells; format: cell-based; conditions: single dose 200 ng/ml, 4-day incubation
# Description: FIGS. 14A–E. Light microscopic examination of T47-D human breast cancer cells after single dose of 200 ng/ml hPRL (15B); 200 ng/ml of HPRL-G129R (15C); 200 nM of E2 (15D); or 200 nM of 4-OH-Tamoxifen (15E) treatment after 4-day incubation as compared to control (15A).×200.
# Human Breast Cancer Cell Proliferation Assays. Human PRL and hPRL-G129R were tested further for their ability to stimulate/inhibit breast cancer cell proliferation in cell culture. Light microscopic examination of breast cancer cell proliferation after hPRL, hPRL-G129R, E2 and 4-OH-Tamoxifen is shown in FIGS. 14A–E. It is clear that there is a significant difference in cell density between hPRL (15B), hPRL-G129R(15C) and E2 (15D), 4-OH-Tamoxifen (15E) treated cells.
molecule,measurement,setting,value
B1,effect on proliferation in mixed cell culture,"[1]; T47D, three days, effect greater than on MCF-7",inhibitory effect
same,inhibition of T47D proliferation,"[1]; co-culture with L cells expressing hPRLA, 24 h to five days",up to 100%
same,effect on proliferation in mixed cell culture,[2],inhibitory effect
same,induction of apoptosis DNA fragmentation,"BT-474 cells; 250 ng G129R, 24 hours",induced apoptosis
same,"apoptosis and hPRL competition, as in T-47D",BT-474 cells; BT-474 cells,same results
same,induction of apoptosis DNA fragmentation,MCF-7 cells,induced apoptosis
same,induction of apoptosis DNA fragmentation,MDA-MB-134 cells,induced apoptosis
same,apoptosis of two prostate cancer cells,prostate cancer cells,underwent apoptosis
same,Caspase-3 activation,Caspase-3,Caspase-3 induction
same,overall cell condition under light microscopy,[3],not as healthy
